Laboratory results as given in article PMC5689134, “Detailed Analysis of Insulin Absorption Variability and the Tissue Response to Continuous Subcutaneous Insulin Infusion Catheter Implantation in Swine” (Diabetes Technology & Therapeutics, 2017).

System: subcutaneous tissue
Assay: Tissue histology surrounding CSII catheters, pathologist grading
Format: in vivo, swine
Details: for Tissue histopathology compared with catheters infused with saline or not infused: day 5 of CSII infusion, result in words
Method: The swine were euthanized after completion of the third PK study on day 5. A 50 μL bolus of methylene blue dye was then infused into the CCs and ICs to determine whether dye migrated onto the skin surface. The skin and subcutaneous tissue surrounding the 72 catheters were excised and fixed in 10% formalin for 3 days. The tissue was grossed and processed using a long dehydration protocol for fatty tissue.[21] Specimens were sectioned perpendicular or parallel to the skin surface depending on the location and angle of the cannula in the excised tissue specimen. Four-micrometer-thick tissue sections were stained with hematoxylin and eosin (nuclei are stained blue/purple, extracellular matrix [ECM] and cytoplasm are stained in pink), Masson's trichrome (collagen/connective tissue is stained blue, muscle fibers and erythrocytes are stained bright red, and cytoplasm is stained pink), and a reticulin stain (type III collagen is stained silver).
A surgical pathologist analyzed the stained tissue for no, mild, moderate, or severe (grades 0, 1, 2, or 3, respectively) hemorrhage, reticular fiber disruption, fibrin deposition, fat necrosis, and collagen deposition compared with unaffected tissue. This grading system was newly established by the lead pathologist of this study who predefined these criteria before analyzing all samples. The pathologist remained blinded throughout the study. The size of the debris field was measured (mm) using the Aperio ScanScope image capture device and ImageScope software (Leica Biosystems). Topography of tissue planes was considered regular if subcutaneous tissue was pushed down evenly in the direction of the cannula tip and irregular or intermediate otherwise. Irregular or regular reservoir geometry described the shape of the debris field surrounding the catheter tip.
Fisher's exact test was used to evaluate the differences in histology profiles of CCs and ICs. A chi-squared test was applied to analyze differences in methylene blue dye leakage.

[1] = swine s.c. tissue, day 5, insulin-infused CSII catheters (CC + IC), count (percent in brackets)
[2] = swine s.c. tissue, day 5, insulin-infused CSII catheters (CC + IC), count (percent in brackets), P < 0.05 between infusion types
[3] = swine, day 5, insulin-infused CC, count (percent of 11 catheters)
[4] = swine, day 5, insulin-infused IC, count (percent of 12 catheters)

Q: What does the source list for insulin lispro?
A: Collagen deposition at tip: catheters graded Mild [1]: 16 (66.7); Collagen deposition at tip: catheters graded Moderate [1]: 5 (20.8); Collagen deposition at tip: catheters graded None [1]: 2 (8.3); Collagen deposition at tip: catheters graded Severe [1]: 1 (4.2); Fat Necrosis: catheters graded Mild [1]: 5 (20.8); Fat Necrosis: catheters graded Moderate [1]: 12 (50.0); Fat Necrosis: catheters graded None [1]: 1 (4.2); Fat Necrosis: catheters graded Severe [1]: 6 (25.0); Hemorrhage at tip base: catheters graded Mild [1]: 13 (54.2); Hemorrhage at tip base: catheters graded Moderate [1]: 10 (41.7); Hemorrhage at tip base: catheters graded None [1]: 1 (4.2); Hemorrhage at tip base: catheters graded Severe [1]: 0; Reticular Fiber Disruption: catheters graded Mild [1]: 9 (37.5); Reticular Fiber Disruption: catheters graded Moderate [1]: 6 (25.0); Reticular Fiber Disruption: catheters graded None [1]: 1 (4.2); Reticular Fiber Disruption: catheters graded Severe [1]: 8 (33.3); Fibrin Deposition in Reservoir: catheters graded Mild [2]: 2 (8.3); Fibrin Deposition in Reservoir: catheters graded None [2]: 1 (4.2); Fibrin deposition in reservoir: catheters graded Moderate [2]: 11 (45.8); Fibrin deposition in reservoir: catheters graded Severe [2]: 10 (41.7); Tissue histopathology compared with catheters infused with saline or not infused (swine s.c. tissue): increased fibrin; Tissue histopathology compared with catheters infused with saline or not infused (swine s.c. tissue, listed as lispro insulin): greater amount of fibrin in the reservoir; Collagen Deposition at Tip: catheters graded Mild [3]: 9 (82%); Collagen Deposition at Tip: catheters graded Moderate [3]: 2 (18%); Collagen Deposition at Tip: catheters graded None [3]: 0; Collagen Deposition at Tip: catheters graded Severe [3]: 0; Fat Necrosis: catheters graded Mild [3]: 4 (36%); Fat Necrosis: catheters graded Moderate [3]: 7 (64%); Fat Necrosis: catheters graded None [3]: 0; Fat Necrosis: catheters graded Severe [3]: 0; Fibrin Deposition in Reservoir: catheters graded Mild [3]: 0; Fibrin Deposition in Reservoir: catheters graded None [3]: 0; Fibrin deposition in reservoir: catheters graded Moderate [3]: 3 (27%); Hemorrhage at Tip Base: catheters graded Mild [3]: 7 (64%); Hemorrhage at Tip Base: catheters graded Moderate [3]: 4 (36%); Hemorrhage at Tip Base: catheters graded None [3]: 0; Hemorrhage at Tip Base: catheters graded Severe [3]: 0; Reticular Fiber Disruption: catheters graded Mild [3]: 9 (82%); Reticular Fiber Disruption: catheters graded Moderate [3]: 2 (18%); Reticular Fiber Disruption: catheters graded None [3]: 0; Reticular Fiber Disruption: catheters graded Severe [3]: 0; Collagen Deposition at Tip: catheters graded Mild [4]: 7 (58%); Collagen Deposition at Tip: catheters graded Moderate [4]: 3 (25%); Collagen Deposition at Tip: catheters graded None [4]: 1 (8%); Collagen Deposition at Tip: catheters graded Severe [4]: 1 (8%); Fat Necrosis: catheters graded Mild [4]: 1 (8%); Fat Necrosis: catheters graded Moderate [4]: 5 (42%); Fat Necrosis: catheters graded None [4]: 0; Fat Necrosis: catheters graded Severe [4]: 6 (50%); Fibrin Deposition in Reservoir: catheters graded Mild [4]: 2 (17%); Fibrin Deposition in Reservoir: catheters graded None [4]: 0; Fibrin deposition in reservoir: catheters graded Severe [4]: 2 (17%); Hemorrhage at Tip Base: catheters graded Mild [4]: 6 (50%); Hemorrhage at Tip Base: catheters graded Moderate [4]: 6 (50%); Hemorrhage at Tip Base: catheters graded None [4]: 0; Hemorrhage at Tip Base: catheters graded Severe [4]: 0; Reticular Fiber Disruption: catheters graded Mild [4]: 0; Reticular Fiber Disruption: catheters graded Moderate [4]: 4 (33%); Reticular Fiber Disruption: catheters graded None [4]: 0; Reticular Fiber Disruption: catheters graded Severe [4]: 8 (67%)
